Test results: publication PMC7168832

How the values were obtained:
[1] = biological target: prohibitin isoform 1 (human (endogenous in SH-SY5Y, U-87 MG, CHME-3)) (UniProt P35232)
[2] = biological target: prohibitin-2 isoform 1 (human (endogenous in SH-SY5Y, U-87 MG, CHME-3)) (UniProt Q99623)
[3] = biological target: prohibitin-2 isoform 1 (human (endogenous in SH-SY5Y, U-87 MG, CHME-3)) (UniProt Q99623); remark: listed apart in the source
[4] = biological target: prohibitin isoform 1 (human (endogenous in SH-SY5Y, U-87 MG, CHME-3)) (UniProt P35232); remark: listed apart in the source
[5] = biological target: prohibitin-2 isoform 1 (human (endogenous in SH-SY5Y, U-87 MG, CHME-3)) (UniProt Q99623); remark: listed apart in the source

Sequence of UniProt Q99623 (Q99623 whole entry, canonical isoform): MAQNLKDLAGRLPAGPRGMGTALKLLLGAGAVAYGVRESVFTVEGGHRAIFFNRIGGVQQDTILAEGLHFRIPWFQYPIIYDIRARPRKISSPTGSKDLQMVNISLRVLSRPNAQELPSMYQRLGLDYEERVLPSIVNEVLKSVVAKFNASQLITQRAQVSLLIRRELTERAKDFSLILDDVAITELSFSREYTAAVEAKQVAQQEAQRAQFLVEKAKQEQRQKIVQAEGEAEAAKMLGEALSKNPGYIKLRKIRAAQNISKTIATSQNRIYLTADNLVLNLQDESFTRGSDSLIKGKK
Sequence of UniProt P35232 (P35232 whole entry, canonical isoform): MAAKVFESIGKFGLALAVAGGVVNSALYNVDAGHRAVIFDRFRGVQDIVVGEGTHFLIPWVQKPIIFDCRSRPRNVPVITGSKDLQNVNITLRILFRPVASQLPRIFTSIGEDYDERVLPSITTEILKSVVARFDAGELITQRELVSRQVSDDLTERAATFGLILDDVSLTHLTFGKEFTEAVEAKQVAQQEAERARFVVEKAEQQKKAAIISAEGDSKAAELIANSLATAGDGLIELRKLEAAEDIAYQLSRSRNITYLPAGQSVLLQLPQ

With “DENV-3 (16562), purified virus (complex)” as the substance, how does the reduction in DENV-3 plaques, CHME-3 cells pre-incubated with PHB1 antibody [1] read?
The reduction in DENV-3 plaques, CHME-3 cells pre-incubated with PHB1 antibody was 73.3%.

What about the reduction in DENV-3 plaques, SH-SY5Y cells pre-incubated with anti-PHB1 antibody [1] of the same substance?
The reduction in DENV-3 plaques, SH-SY5Y cells pre-incubated with anti-PHB1 antibody was 55%.

And the reduction in DENV-3 plaques, CHME-3 cells pre-incubated with PHB2 antibody [2]?
The reduction in DENV-3 plaques, CHME-3 cells pre-incubated with PHB2 antibody was 82.2%.

What about the reduction in DENV-3 plaques, SH-SY5Y cells pre-incubated with anti-PHB2 antibody [2] of the same substance?
The reduction in DENV-3 plaques, SH-SY5Y cells pre-incubated with anti-PHB2 antibody was 75%.

And the entry assay: reduction in virus titre, CHME-3 cells with bound DENV-3 (MOI 100) treated with PHB2 polyclonal antibody at 37 °C for 1.5 h [3]?
Its entry assay: reduction in virus titre, CHME-3 cells with bound DENV-3 (MOI 100) treated with PHB2 polyclonal antibody at 37 °C for 1.5 h is 82%.

What about the % fluorescent (DENV-3 antigen) positive SH-SY5Y cells by IFA 30 h PI, cells pre-incubated with anti-PHB1 antibody, 1 to 2 μg (17 to 10%; virus control 40%, anti-actin control 35%) [4] of the same substance?
Its % fluorescent (DENV-3 antigen) positive SH-SY5Y cells by IFA 30 h PI, cells pre-incubated with anti-PHB1 antibody, 1 to 2 μg (17 to 10%; virus control 40%, anti-actin control 35%) is 17%.

What about the % fluorescent (DENV-3 antigen) positive SH-SY5Y cells by IFA 30 h PI, cells pre-incubated with anti-PHB2 antibody, 1 to 2 μg (11 to 6%; virus control 40%, anti-actin control 35%) [5] of the same substance?
Its % fluorescent (DENV-3 antigen) positive SH-SY5Y cells by IFA 30 h PI, cells pre-incubated with anti-PHB2 antibody, 1 to 2 μg (11 to 6%; virus control 40%, anti-actin control 35%) is 11%.
